In FireProtDB (doi:10.1016/j.jmb.2005.09.091):

B1: Guanyl-specific ribonuclease Sa, P05798 (parent)
chain: DVSGTVCLSALPPEATDTLNLIASDGPFPYSQDGVVFQNRESVLPTQSYGYYHEYTVITPGARTRGTRRIITGEATQEDYYTGDHYATFSLIDQTC

Variants of: B1
Settings: Kitasatospora aureofaciens, pH 7, Thermal, Mops 30 mM, structure 1RGG, whole UniProt chain shown; for ddG of mutation (higher = less stable) / heat capacity change of unfolding: 52.6 °C

Variant | ddG of mutation (higher = less stable) (CD) [kcal/mol] | heat capacity change of unfolding (CD) [kcal/mol/K] | ddG of mutation (higher = less stable) (DSC) [kcal/mol] | heat capacity change of unfolding (DSC) [kcal/mol/K] | Tm (CD) [°C] | change of melting temperature, mutant - wild type (higher = more stable) (CD) [°C] | unfolding enthalpy (van 't Hoff) (CD) [kcal/mol]
D79W | -2.3 | 1.52 | -2.3 | 1.52 | 55.4 | 7.6 | 88
D79E | 0.3 | 1.52 | 0.3 | 1.52 | 47 | -0.8 | 90
D79H | -1.8 | 1.52 | -1.8 | 1.52 | – | – | –
D79L | – | – | -2.7 | 1.52 | 56.6 | 8.7 | 75
D79K | -2.3 | 1.52 | -2.3 | 1.52 | 55.4 | 7.6 | 88
D79Y | -2.9 | 1.52 | – | – | 57.4 | 9.6 | 84
D79I | -2.9 | 1.52 | -2.8 | 1.52 | 57.4 | 9.6 | 89
D79R | -2.7 | 1.52 | -2.7 | 1.52 | 56.8 | 9 | 92
